Biological target: Francisella tularensis subsp. holarctica LVS 2-C-methyl-D-erythritol 4-phosphate cytidylyltransferase (Francisella tularensis subsp. holarctica LVS)
Assay: SEC

Francisella tularensis subsp. holarctica LVS 2-C-methyl-D-erythritol 4-phosphate cytidylyltransferase (enzyme)
stoichiometry N: 2
